Measured values as given in patent US20180298361A1 (CHO PHARMA, published 2018).

B1: Rtx-G1 (antibody, human IgG1, kappa)
heavy: not shown
light: QIVLSQSPAILSASPGEKVTMTCRASSSVSYIHWFQQKPGSSPKPWIYATNLASGVPVRFSGSGSGTSYSLTISRVEAEDAATYYCQQWTSNPPTFGGGTKLEIKRTVAAPSVFIFPPSDEQLKSGTASVVCLLNNFYPREAKVQWKVDNALQSGNSQESVTEQDSKDSTYSLSSTLTLSKADYEKHKVYACEVTHQGLSSPVTKSFNRGEC
modifications: homogeneous non-fucosylated N-glycan G1 (high mannose type, Man5GlcNAc2) at Asn-297
notes: also called glycoengineered Rituximab G1; Man5GlcNAc2 glycoform
B2: Rtx-G9 (antibody, human IgG1, kappa)
heavy: not shown
light: B1 light
modifications: homogeneous N-glycan G9 without core fucose (bi-antennary complex type with alpha 1,2 fucose on one of the two terminal galactose) at Asn-297
notes: also called glycoengineered Rituximab G9; bi-antennary complex type glycoform
B3: Rtx-G15 (antibody, human IgG1, kappa)
heavy: not shown
light: B1 light
modifications: homogeneous N-glycan G15 (bi-antennary complex type; structure only in FIG. 15) at Asn-297
notes: also called glycoengineered Rituximab G15; bi-antennary complex type glycoform
B4: Rtx-G10 (antibody, human IgG1, kappa)
heavy: not shown
light: B1 light
modifications: homogeneous N-glycan G10 without core fucose (bi-antennary complex type with alpha 1,3 fucose on both GlcNAc and terminal di-galactose) at Asn-297
notes: also called glycoengineered Rituximab G10; bi-antennary complex type glycoform
B5: Rtx-G11 (antibody, human IgG1, kappa)
heavy: not shown
light: B1 light
modifications: homogeneous N-glycan G11 (bi-antennary complex type; structure only in FIG. 15) at Asn-297
notes: also called glycoengineered Rituximab G11; bi-antennary complex type glycoform
B6: Rtx-G4 (antibody, human IgG1, kappa)
heavy: not shown
light: B1 light
modifications: homogeneous non-fucosylated N-glycan G4 (hybrid type; structure in FIG. 15) at Asn-297
notes: also called glycoengineered Rituximab G4; hybrid type glycoform
B7: Rtx-G13 (antibody, human IgG1, kappa)
heavy: not shown
light: B1 light
modifications: homogeneous N-glycan G13 (bi-antennary complex type; structure only in FIG. 15) at Asn-297
notes: also called glycoengineered Rituximab G13; bi-antennary complex type glycoform
B8: Rtx-G14 (antibody, human IgG1, kappa)
heavy: not shown
light: B1 light
modifications: homogeneous N-glycan G14 (bi-antennary complex type; structure only in FIG. 15) at Asn-297
notes: also called glycoengineered Rituximab G14; bi-antennary complex type glycoform
B9: Rtx-G8 (antibody, human IgG1, kappa)
heavy: not shown
light: B1 light
modifications: homogeneous non-fucosylated N-glycan G8 (bi-antennary complex type with bisected GlcNAc and terminal di-galactose) at Asn-297
notes: also called glycoengineered Rituximab G8; bi-antennary complex type glycoform
B10: Rtx-G3 (antibody, human IgG1, kappa)
heavy: not shown
light: B1 light
modifications: homogeneous non-fucosylated N-glycan G3 (hybrid type; structure in FIG. 15) at Asn-297
notes: also called glycoengineered Rituximab G3; hybrid type glycoform
B11: Rtx-G6 (antibody, human IgG1, kappa)
heavy: not shown
light: B1 light
modifications: homogeneous non-fucosylated N-glycan G6 (tri-antennary complex type with terminal alpha-2,6 sialic acids) at Asn-297
notes: also called glycoengineered Rituximab G6; tri-antennary complex type glycoform
B12: Rtx-G5 (antibody, human IgG1, kappa)
heavy: not shown
light: B1 light
modifications: homogeneous non-fucosylated N-glycan G5 (tri-antennary complex type with terminal galactose residues) at Asn-297
notes: also called glycoengineered Rituximab G5; tri-antennary complex type glycoform
B13: Rtx-G7 (antibody, human IgG1, kappa)
heavy: not shown
light: B1 light
modifications: homogeneous non-fucosylated N-glycan G7 (bi-antennary complex type with terminal di-galactose) at Asn-297
notes: also called glycoengineered Rituximab G7; bi-antennary complex type glycoform
B14: Rtx-G12 (antibody, human IgG1, kappa)
heavy: not shown
light: B1 light
modifications: homogeneous N-glycan G12 (bi-antennary complex type; structure only in FIG. 15) at Asn-297
notes: also called glycoengineered Rituximab G12; bi-antennary complex type glycoform
B15: Rtx-G16 (antibody, human IgG1, kappa)
heavy: not shown
light: B1 light
modifications: homogeneous non-fucosylated N-glycan G16 (bi-antennary complex type with terminal alpha-2,6 sialic acids) at Asn-297
notes: also called glycoengineered Rituximab G16; bi-antennary complex type glycoform
B16: Rtx-G2 (antibody, human IgG1, kappa)
heavy: not shown
light: B1 light
modifications: homogeneous non-fucosylated N-glycan G2 (high mannose type, Man9GlcNAc2) at Asn-297
notes: also called glycoengineered Rituximab G2; Man9GlcNAc2 glycoform
B17: Commercial Rituximab (antibody, human IgG1, kappa)
heavy: not shown
light: B1 light
modifications: heterogeneous Fc N-glycans at N297: core-fucosylated biantennary complex type oligosaccharides carrying 0-2 galactose (G0F, G1F, G2F)
notes: DrugBank DB00073; also called non-modified Rituximab; original Rituximab

These binders were tested against T1, recombinant soluble FcγRIIIA (UniProt P08637 17-208, limits assumed) (assay: ELISA; recombinant soluble FcγRIIIA coated on plate; against commercial Rituximab).
T1 construct: also called FcγIIIA; FcTRIIIA
Protocol: (§1) Microtiter plate (Corning® 96 Well Clear Flat Bottom Polystyrene High Bind, #9018) was coated with 50 ng/well of recombinant soluble FcγRIIIA diluted in 50 mM Bicarbonate/carbonate coating buffer (pH 10) overnight at 4° C. The plate was then washed 3 times with PBST (0.05% Tween 20 in PBS) and blocked with 5% BSA in PBST for 1 h at room temperature. The binding activity of glycoengineered antibodies (Rtx G1-G16) was determined for serial eight dilutions, starting with concentration of 100 μg/m1 in 2% BSA/PBST in duplicates. The plate was incubated for 1 h at room temperature, and washed 3 times with PBST. Next, 100 μl of goat anti-human IgG conjugated to horseradish peroxidase (Jackson immune, #109-035-088) in 2% BSA/PBST was added per well and incubated for 30 min at room temperature. The plate was washed 5 times with PBST then 100 μL per well of TMB substrate (eBioscience, #00-4201-56) was added and the resulting plate was incubated in the dark 15 min at room temperature. The absorbance value was determined at 450 nm in an ELISA reader (Molecular Devices Corporation, Sunnyvale, Calif., USA).

T1 sequence (P08637 17-208 limits assumed): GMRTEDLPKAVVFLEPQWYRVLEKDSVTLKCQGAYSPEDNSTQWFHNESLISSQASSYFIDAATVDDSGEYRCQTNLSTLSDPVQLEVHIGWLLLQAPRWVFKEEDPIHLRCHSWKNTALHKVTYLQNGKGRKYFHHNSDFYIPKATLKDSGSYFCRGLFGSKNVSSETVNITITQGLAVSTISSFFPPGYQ

EC50 improvement Folds [fold]	Binder
6.5	B1
17	B2
32	B3
26	B4
5.4	B5
2.7	B6
22	B7
33	B8
32	B9
3.2	B10
34	B11
35	B12
35	B13
33	B14
34	B15
~1	B16

The binders below were run against T1, recombinant soluble FcγRIIIA (assay: ELISA; recombinant soluble FcγRIIIA coated on plate, antibody titrated, anti-human IgG-HRP detection).
Protocol: as §1

EC50 [µg/mL]	Maxi binding (A450 nm)	Binder
1.04	1.2	B17
0.16	1.4	B1
0.061	2.4	B2
0.034	2.3	B3
0.043	2.2	B4
0.199	2.4	B5
0.394	1.2	B6
0.048	2.6	B7
0.033	2.4	B8
0.034	2.3	B9
0.32	1.3	B10
0.032	2.8	B11
0.031	2.6	B12
0.031	2.5	B13
0.033	2.6	B14
0.032	2.5	B15
1.05	1.1	B16

What follows are binders tested against T1, recombinant soluble FcγRIIIA (assay: ELISA; recombinant soluble FcγRIIIA coated on plate; the reference itself).
Protocol: as §1

EC50 improvement Folds [fold]	Binder
1	B17
